From the supplement of paper PMC12764529 come the findings set out here.

± gives the half width of the 95% confidence interval.

Data set [1] is described as follows: folding stability dG unfold from trypsin proteolysis; higher = more stable. A digest of the protocol:
(§1)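 Mini-proteins designed to be under 80 residues and free of cysteine were carried in a PA-tagged cDNA display construct and digested with trypsin and with chymotrypsin. Each protease was applied at 11 threefold-diluted concentrations, alongside a no-protease condition, before sequencing. K50 came from Bayesian fitting of the sequencing counts, and unfolding free energy was obtained by comparing it with a sequence-predicted unfolded-state K50 and a shared folded-state K50, for each protease separately or for both together. Designs were retained only if their AlphaFold2 dimer inter-PAE exceeded 15.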

Data set [2] can be described thus: folding stability dG unfold from chymotrypsin proteolysis; higher = more stable. A digest of the protocol:
as §1

Data set [3] in a line: folding stability dG unfold (combined trypsin and chymotrypsin); higher = more stable. A digest of the protocol:
as §1

In the case of “SMLSEMPPEELAERIARELGLVGAEVEAVRVGDVLLVPLRLRDPVRDEVRLLVLLVVPEDDGRVLLTDLSSA [r9_1042_TrMRF]”, the “folding stability dG unfold” value came out at 6.09 ± 0.113 kJ/mol in data set [1], 10.5 ± 0.121 kJ/mol in data set [2] and 9.04 ± 0.381 kJ/mol in data set [3].

For “SMMKVKVRITFEDGEEVEIEIEMSREELKNKIEELIKELAEKEGKEVKEVKIEIVDEKTNETYTFTIKVKSA [r9_1193_TrROS_Hall]”, the “folding stability dG unfold” value in data set [1] was 17.3 ± 0.795 kJ/mol; in data set [2], 16.4 ± 0.368 kJ/mol; in data set [3], 15.3 ± 1.26 kJ/mol.

With “SMPEKVTFPFNIPLEEYSLEEIKEAVRERLEKEGYKVLKPDLFPEQEKLAKEAPPEAELPLLVEALVVPGSA [r9_1163_TrMRF]”, the “folding stability dG unfold” value in data set [1] is 1.72 ± 0.326 kJ/mol; in data set [2], -0.795 ± 1.05 kJ/mol; in data set [3], 0.182 ± 1.17 kJ/mol.

Take “SMPEPLVLRVRVRDPENPEPVLEFELVIPPDGGVLVLARHPDRVEVREMPLEEAIDLLLSLPFEIEEVEGSA [r9_470_TrMRF]”: the results for the “folding stability dG unfold” value in data set [1], in data set [2] and in data set [3] were 11.9 ± 0.285 kJ/mol, 13.9 ± 0.356 kJ/mol and 13.1 ± 0.586 kJ/mol, respectively.

As to “SMPEVETVTLTLTLVDEETGEEVTIEITATRVDGYLVLTMKVEVTVNGKKYTIEMTIVVKPGEEITLTLESA [r9_1015_TrROS_Hall]”, the “folding stability dG unfold” value was 16.7 ± 1.38 kJ/mol in data set [1], 24.5 ± 1.55 kJ/mol in data set [2] and > 25.1 kJ/mol in data set [3].

In the case of “SMPKTIELEIDEDLPEEEVRARLLAQGFEEIEFHELEDPEVRRVTATRPEDDETVVVTVRPPPVPPDAPGSA [r9_1090_JUSTAS]”, the “folding stability dG unfold” value was 9.97 ± 0.402 kJ/mol in data set [1], 9.59 ± 0.331 kJ/mol in data set [2] and 9.53 ± 0.753 kJ/mol in data set [3].

On to “SMPLKVTVEVYEPGGNPLGSKTYEVEPGETLTFTFPRPVKGRVTITDPNADNPQTVTGDPATGTLTFPLVSA [r9_272_JUSTAS]”, for which the “folding stability dG unfold” value in data set [1] came out at 2.46 ± 0.234 kJ/mol; in data set [2] it was 3.8 ± 0.36 kJ/mol; in data set [3], 3.59 ± 0.289 kJ/mol.

For the sequence “SMPLSEEEARALAEALAAEVAAAAAAAGVAGVEVPVEISRTEEGGWTITLTVTLHAGAAPVGVRPVVVEVAS [r1_364_JUSTAS]”, the “folding stability dG unfold” value was 4.97 ± 0.113 kJ/mol in data set [1], 7.56 ± 0.109 kJ/mol in data set [2] and 6.66 ± 0.339 kJ/mol in data set [3].

Turning to “SMPMTVEEFLEANPDVILIRLPNEKVIFINPEEEKAFVLLPETGEVLVIDATLEEVLELVPEFGAEILDESA [r9_721_TrMRF]”, the results for the “folding stability dG unfold” value in data set [1], in data set [2] and in data set [3] were 8.37 ± 0.364 kJ/mol, 10.7 ± 0.105 kJ/mol and 9.79 ± 0.218 kJ/mol, respectively.

Turning to “SMPNTIEEIRFTFTLPDDTPVESEVDPDGKVTGTYPDGLKIEATLEPDSGKLTVKVTFPDGLPAEATIDLSA [r9_99_TrMRF]”, the “folding stability dG unfold” value in data set [1] was determined as 6.68 ± 0.377 kJ/mol; in data set [2], 7.46 ± 0.176 kJ/mol; in data set [3], 7.09 ± 0.372 kJ/mol.

For “SMREITVTLPSEELAEELREAAEALGVEEVEVSRLPEDRLEIRIKTNSDPESVIQALKDLAEKRGLEVAASA [r9_1003_JUSTAS]”, the “folding stability dG unfold” value in data set [1] was 7.22 ± 0.31 kJ/mol; in data set [2], 6.94 ± 0.36 kJ/mol; in data set [3], 6.72 ± 0.356 kJ/mol.

On to “SMRIVTEDGQELTIVLPKVPPNMTPEQLRKALEEAGVEVEEITFDEETGEVTVKIRFKDAEKAEEALKKASA [r9_1154_TrROS_Hall]”, for which the “folding stability dG unfold” value in data set [1] came to 6.31 ± 0.247 kJ/mol; in data set [2], 4 ± 0.502 kJ/mol; in data set [3], 5.06 ± 0.586 kJ/mol.

For “SMRVRPDGYAVVIEVRVTEDAGPPPPPFEAIRDPETDRVTVVAGATPEEIVAFAEFPGVEVERIEVIPLLSA [r9_827_TrMRF]”, the “folding stability dG unfold” value came to 1 ± 0.418 kJ/mol in data set [1], 2.83 ± 0.36 kJ/mol in data set [2] and 2.39 ± 0.414 kJ/mol in data set [3].

Regarding “SMSLTIPEELIEAIKKALEELEPGEEVTITYNLPDGSVITVKVVGKGEVTITVYSSPDSQTQTYTFEIKESA [r9_132_JUSTAS]”, the figures for the “folding stability dG unfold” value in data set [1], in data set [2] and in data set [3] were 13.2 ± 0.255 kJ/mol, 13.86 ± 0.0962 kJ/mol and 13.6 ± 0.289 kJ/mol, respectively.

On to “SMSPEIVEKIRKFLEEKGYSFTVERIPETGKVIINIDVRGNGKTRRVNIVFDENDPEKGIDLIKEIIESGSA [r9_42_TrMRF]”, for which the “folding stability dG unfold” value in data set [1] was found to be 14.7 ± 0.418 kJ/mol; in data set [2] it was 18.8 ± 0.318 kJ/mol; in data set [3], 17.6 ± 0.356 kJ/mol.

Take “SMTEELVIDFPDGVKATVRRFGDGEVTITIDWPTDNPELRKKGGIKALVDAIAKELGLDPSKVKVYTRNASA [r9_401_TrMRF]”: the “folding stability dG unfold” value amounted to 12.7 ± 0.36 kJ/mol in data set [1], 17.2 ± 0.364 kJ/mol in data set [2] and 15.7 ± 0.46 kJ/mol in data set [3].

“SMTKTIPVTIEVDPSLSEEEIEALVEKVKEEIKEKAEAEGGKVKVTVTIEPDPNKPVVHGTITITKPKKLSA [r9_1161_JUSTAS]”: the figures for the “folding stability dG unfold” value in data set [1], in data set [2] and in data set [3] were 2.92 ± 0.205 kJ/mol, -2.09 ± 0.753 kJ/mol and 0.691 ± 0.544 kJ/mol, respectively.

Turning to “SMTLIVRVEVENENGEKIEKEVEVEVEPGETIEELLKKLNLSEEEVKKVKIEVYVIKDGKLEKKEFTLEKSA [r9_755_TrROS_Hall]”, the “folding stability dG unfold” value stood at 5.41 ± 0.837 kJ/mol in data set [1], 10.9 ± 0.322 kJ/mol in data set [2] and 9.59 ± 1.46 kJ/mol in data set [3].

Take “SMTLPLLFVFPVNSPEELEKARKLAEEEVKELAEELGVKVKIEKVEYFVNPEGDYVLIRAYVTVTSPEEESA [r9_105_TrMRF]”: the “folding stability dG unfold” value in data set [1] was found to be 13.3 ± 0.226 kJ/mol; in data set [2], 17 ± 0.418 kJ/mol; in data set [3], 15.7 ± 0.36 kJ/mol.

In the case of “SMTLTIEVDPNDPAKVKALIDSTPPDTTVTLVFPQEDGSKPVKTITVKPPLEKPISPENMTPKNVAARKKSA [r9_1103_JUSTAS]”, the entries for the “folding stability dG unfold” value in data set [1], in data set [2] and in data set [3] were -3.27 ± 2.89 kJ/mol, 2.01 ± 0.414 kJ/mol and 0.494 ± 0.753 kJ/mol, respectively.

Consider “SMTPEEEAKRKAEEEAEKLKEEIKKKLKEEGVPKNVTFKFERDIEITLTDENGNVIGTRKIKIKFTVPLPSA [r9_494_JUSTAS]”, for which the “folding stability dG unfold” value in data set [1] was 8.97 ± 1.21 kJ/mol; in data set [2] it was 7.5 ± 0.544 kJ/mol; in data set [3], 7.73 ± 1.63 kJ/mol.

With “SMTVKIELEVEIEVPETPEELRKLAEALAEELGIEEVKVVEIEYDPETKTVRVKVEITVKLPPPPPEEEESA [r9_918_TrROS_Hall]”, the “folding stability dG unfold” value worked out at 13 ± 0.586 kJ/mol in data set [1], 12.1 ± 1.05 kJ/mol in data set [2] and 13.1 ± 0.879 kJ/mol in data set [3].

For “SMTVSATAVPFGDRLVVTVTVTVDPTLFPDRPPGPAVWERVARELARELGIDSVTLAPLPDDTFVALFDDSA [r9_883_TrMRF]”, the “folding stability dG unfold” value turned out to be 10.1 ± 0.289 kJ/mol in data set [1], 10.3 ± 0.167 kJ/mol in data set [2] and 10.4 ± 0.351 kJ/mol in data set [3].

“SMTVTLPDGTTVETSVSTEKLPNGTVVTTTTTTFTTPDGTVVPSTTVSVSPAPPTELPFTVLYRPEGSLLSA [r9_1168_JUSTAS]”: the “folding stability dG unfold” value in data set [1] was 0.326 ± 0.0628 kJ/mol; in data set [2], -0.512 ± 0.669 kJ/mol; in data set [3], 0.0265 ± 0.347 kJ/mol.

On to “SMVEVLPDGTVVLAGELPPNVSIEEFLNSLPGLEIASVEFEPDPETGVTHFVFVVTPDGRVYVGSVPLGKSA [r9_238_TrMRF]”, for which the “folding stability dG unfold” value is 5.23 ± 0.167 kJ/mol in data set [1], 11 ± 0.172 kJ/mol in data set [2] and 9.39 ± 0.234 kJ/mol in data set [3].

As for “SMVFVEIFYDPIKKKKYIKIVIFLPPNDPEKIKELAEKIKKEIEKFFEELGLKVDKIEVFVFTFPPDFPLSA [r9_117_TrMRF]”, the “folding stability dG unfold” value turned out to be 14.1 ± 0.962 kJ/mol in data set [1], 20.9 ± 0.28 kJ/mol in data set [2] and 19.2 ± 0.92 kJ/mol in data set [3].
